Data as given in the supplement of paper PMC12458215.
± gives the uncertainty stated by the source.

Test system: HEK293T
Test: plasma membrane surface immunostaining intensity (anti-HA, deep receptor scanning) (arbitrary fluorescence units); higher = higher plasma membrane expression

MSLFLSNLSTNDSSLWKENHNSTDLLNPPGTLNIYLFCLTCLMTFAALVGSIYSLISLLKMQNRTVVSMLVASWSVDDLMSVLSVTIFMFLQWPNEVPGYFQFLCTTSALMYLCQGLSSNLKATLLVSYNFYTMHRGVGSQTASRRSGQVLGVVLTVWAASLLLSALPLCGWGAFVRTPWGCLVDCSSSYVLFLSIVYALAFGLLVGLSVPLTHRLLCSEEPPRLHSNYQEISRGASIPGTPPTAGRVVSLSPEDAPGPSLRRSGGCSPSSDTVFGPGAPAAAGAEACRRENRGTLYGTRSFTVSVAQKRFALILALTKVVLWLPMMMHMVVQNVVGFQSLPLETFSFLLTLLATTVTPVFVLSKRWTHLPCGCIINCRQNAYAVASDGKKIKRKGFEFNLSFQKSYGIYKIAHEDYYDDDENSIFYHNLMNSECETTKDPQRDNRNIFNAIKVEISTTPSLDSSTQRGINKCTNTDITEAKQDSNNKKDAFSDKTGGDINYEETTFSEGPERRLSHEESQKPDLSDWEWCRSKSERTPRQRSGYALAIPLCAFQGTVSLHAPTGKTLSLSTYEVSAEGQKITPASKKIEVYRSKSVGHEPNSEDSSSTFVDTSVKIHLEVLEICDNEEALDTVSIISNISQSSTQVRSPSLRYSRKENRFVSCDLGETASYSLFLPTSNPDGDINISIPDTVEAHRQNSKRQHQERDGYQEEIQLLNKAYRKREEESKGS [GPR149]
plasma membrane surface immunostaining intensity (GPCR class: A): 1060 ± 320

MSNASLLTAFILMGLPHAPALDAPLFGVFLVVYVLTVLGNLLILLVIRVDSHLHTTMYYFLTNLSFIDMWFSTVTVPKLLMTLVFPSGRAISFHSCMAQLYFFHFLGGTECFLYRVMSCDRYLAISYPLRYTSMMTGRSCTLLATSTWLSGSLHSAVQAILTFHLPYCGPNWIQHYLCDAPPILKLACADTSAIETVIFVTVGIVASGCFVLIVLSYVSIVCSILRIRTSEGKHRAFQTCASHCIVVLCFFGPGLFIYLRPGSRKAVDGVVAVFYTVLTPLLNPVVYTLRNKEVKKALLKLKDKVAHSQSK [OR10G8]
plasma membrane surface immunostaining intensity (GPCR class: A (Olfactory)): 114 ± 4.5

MSNATLLTAFILTGLPHAPGLDAPLFGIFLVVYVLTVLGNLLILLVIRVDSHLHTPMYYFLTNLSFIDMWFSTVTVPKMLMTLVSPSGRTISFHSCVAQLYFFHFLGSTECFLYTVMSYDRYLAISYPLRYTNMMTGRSCALLATGTWLSGSLHSAVQTILTFHLPYCGPNQIQHYFCDAPPILKLACADTSANEMVIFVNIGLVASGCFVLIVLSYVSIVCSILRIRTSEGRHRAFQTCASHCIVVLCFFGPGLFIYLRPGSRDALHGVVAVFYTTLTPLFNPVVYTLRNKEVKKALLKLKNGSVFAQGE [OR10G7]
plasma membrane surface immunostaining intensity (GPCR class: A (Olfactory)): 315 ± 110

MSNITDPQMWDFDDLNFTGMPPADEDYSPCMLETETLNKYVVIIAYALVFLLSLLGNSLVMLVILYSRVGRSVTDVYLLNLALADLLFALTLPIWAASKVNGWIFGTFLCKVVSLLKEVNFYSGILLLACISVDRYLAIVHATRTLTQKRHLVKFVCLGCWGLSMNLSLPFFLFRQAYHPNNSSPVCYEVLGNDTAKWRMVLRILPHTFGFIVPLFVMLFCYGFTLRTLFKAHMGQKHRAMRVIFAVVLIFLLCWLPYNLVLLADTLMRTQVIQESCERRNNIGRALDATEILGFLHSCLNPIIYAFIGQNFRHGFLKILAMHGLVSKEFLARHRVTSYTSSSVNVSSNL [CXCR1]
plasma membrane surface immunostaining intensity (GPCR class: A): 5900 ± 170

MSPCGPLNLSLAGEATTCAAPWVPNTSAVPPSGASPALPIFSMTLGAVSNLLALALLAQAAGRLRRRRSAATFLLFVASLLATDLAGHVIPGALVLRLYTAGRAPAGGACHFLGGCMVFFGLCPLLLGCGMAVERCVGVTRPLLHAARVSVARARLALAAVAAVALAVALLPLARVGRYELQYPGTWCFIGLGPPGGWRQALLAGLFASLGLVALLAALVCNTLSGLALLRARWRRRSRRPPPASGPDSRRRWGAHGPRSASASSASSIASASTFFGGSRSSGSARRARAHDVEMVGQLVGIMVVSCICWSPMLVLVALAVGGWSSTSLQRPLFLAVRLASWNQILDPWVYILLRQAVLRQLLRLLPPRAGAKGGPAGLGLTPSAWEASSLRSSRHSGLSHF [PTGER1]
plasma membrane surface immunostaining intensity (GPCR class: A): 1460 ± 250

MSQVTNTTQEGIYFILTDIPGFEASHIWISIPVCCLYTISIMGNTTILTVIRTEPSVHQRMYLFLSMLALTDLGLTLTTLPTVMQLLWFNVRRISSEACFAQFFFLHGFSFMESSVLLAMSVDCYVAICCPLHYASILTNEVIGRTGLAIICCCVLAVLPSLFLLKRLPFCHSHLLSRSYCLHQDMIRLVCADIRLNSWYGFALALLIIIVDPLLIVISYTLILKNILGTATWAERLRALNNCLSHILAVLVLYIPMVGVSMTHRFAKHASPLVHVIMANIYLLAPPVMNPIIYSVKNKQIQWGMLNFLSLKNMHSR [OR51Q1]
plasma membrane surface immunostaining intensity (GPCR class: A (Olfactory)): 152 ± 70

MSSNSSLLVAVQLCYANVNGSCVKIPFSPGSRVILYIVFGFGAVLAVFGNLLVMISILHFKQLHSPTNFLVASLACADFLVGVTVMPFSMVRTVESCWYFGRSFCTFHTCCDVAFCYSSLFHLCFISIDRYIAVTDPLVYPTKFTVSVSGICISVSWILPLMYSGAVFYTGVYDDGLEELSDALNCIGGCQTVVNQNWVLTDFLSFFIPTFIMIILYGNIFLVARRQAKKIENTGSKTESSSESYKARVARRERKAAKTLGVTVVAFMISWLPYSIDSLIDAFMGFITPACIYEICCWCAYYNSAMNPLIYALFYPWFRKAIKVIVTGQVLKNSSATMNLFSEHI [TAAR6]
plasma membrane surface immunostaining intensity (GPCR class: A): 175 ± 65

MSVCYRPPGNETLLSWKTSRATGTAFLLLAALLGLPGNGFVVWSLAGWRPARGRPLAATLVLHLALADGAVLLLTPLFVAFLTRQAWPLGQAGCKAVYYVCALSMYASVLLTGLLSLQRCLAVTRPFLAPRLRSPALARRLLLAVWLAALLLAVPAAVYRHLWRDRVCQLCHPSPVHAAAHLSLETLTAFVLPFGLMLGCYSVTLARLRGARWGSGRHGARVGRLVSAIVLAFGLLWAPYHAVNLLQAVAALAPPEGALAKLGGAGQAARAGTTALAFFSSSVNPVLYVFTAGDLLPRAGPRFLTRLFEGSGEARGGGRSREGTMELRTTPQLKVVGQGRGNGDPGGGMEKDGPEWDL [LTB4R2]
plasma membrane surface immunostaining intensity (GPCR class: A): 4310 ± 330

MSYFYRLKLMKEAVLVKLPFTSLPLLLQTLSRKSRDMEIKNYSSSTSGFILLGLSSNPQLQKPLFAIFLIMYLLAAVGNVLIIPAIYSDPRLHTPMYFFLSNLSFMDICFTTVIVPKMLVNFLSETKVISYVGCLAQMYFFMAFGNTDSYLLASMAIDRLVAICNPLHYDVVMKPRHCLLMLLGSCSISHLHSLFRVLLMSRLSFCASHIIKHFFCDTQPVLKLSCSDTSSSQMVVMTETLAVIVTPFLCIIFSYLRIMVTVLRIPSAAGKWKAFSTCGSHLTAVALFYGSIIYVYFRPLSMYSVVRDRVATVMYTVVTPMLNPFIYSLRNKDMKRGLKKLQDRIYR [OR1L6]
plasma membrane surface immunostaining intensity (GPCR class: A (Olfactory)): 247 ± 87

MTAAIRRQRELSILPKVTLEAMNTTVMQGFNRSERCPRDTRIVQLVFPALYTVVFLTGILLNTLALWVFVHIPSSSTFIIYLKNTLVADLIMTLMLPFKILSDSHLAPWQLRAFVCRFSSVIFYETMYVGIVLLGLIAFDRFLKIIRPLRNIFLKKPVFAKTVSIFIWFFLFFISLPNTILSNKEATPSSVKKCASLKGPLGLKWHQMVNNICQFIFWTVFILMLVFYVVIAKKVYDSYRKSKSKDRKNNKKLEGKVFVVVAVFFVCFAPFHFARVPYTHSQTNNKTDCRLQNQLFIAKETTLFLAATNICMDPLIYIFLCKKFTEKLPCMQGRKTTASSQENHSSQTDNITLG [P2RY13]
plasma membrane surface immunostaining intensity (GPCR class: A): 239 ± 12

MTEFHLQSQMPSIRLIFRRLSLGRIKPSQSPRCSTSFMVVPSFSIAEHWRRMKGANLSQGMEFELLGLTTDPQLQRLLFVVFLGMYTATLLGNLVMFLLIHVSATLHTPMYSLLKSLSFLDFCYSSTVVPQTLVNFLAKRKVISYFGCMTQMFFYAGFATSECYLIAAMAYDRYAAICNPLLYSTIMSPEVCASLIVGSYSAGFLNSLIHTGCIFSLKFCGAHVVTHFFCDGPPILSLSCVDTSLCEILLFIFAGFNLLSCTLTILISYFLILNTILKMSSAQGRFKAFSTCASHLTAICLFFGTTLFMYLRPRSSYSLTQDRTVAVIYTVVIPVLNPLMYSLRNKDVKKALIKVWGRKTME [OR5AU1]
plasma membrane surface immunostaining intensity (GPCR class: A (Olfactory)): 419 ± 110

MTFRDLLSVSFEGPRPDSSAGGSSAGGGGGSAGGAAPSEGPAVGGVPGGAGGGGGVVGAGSGEDNRSSAGEPGSAGAGGDVNGTAAVGGLVVSAQGVGVGVFLAAFILMAVAGNLLVILSVACNRHLQTVTNYFIVNLAVADLLLSATVLPFSATMEVLGFWAFGRAFCDVWAAVDVLCCTASILSLCTISVDRYVGVRHSLKYPAIMTERKAAAILALLWVVALVVSVGPLLGWKEPVPPDERFCGITEEAGYAVFSSVCSFYLPMAVIVVMYCRVYVVARSTTRSLEAGVKRERGKASEVVLRIHCRGAATGADGAHGMRSAKGHTFRSSLSVRLLKFSREKKAAKTLAIVVGVFVLCWFPFFFVLPLGSLFPQLKPSEGVFKVIFWLGYFNSCVNPLIYPCSSREFKRAFLRLLRCQCRRRRRRRPLWRVYGHHWRASTSGLRQDCAPSSGDAPPGAPLALTALPDPDPEPPGTPEMQAPVASRRKPPSAFREWRLLGPFRRPTTQLRAKVSSLSHKIRAGGAQRAEAACAQRSEVEAVSLGVPHEVAEGATCQAYELADYSNLRETDI [ADRA1D]
plasma membrane surface immunostaining intensity (GPCR class: A): 125 ± 25

MTILLNSSLQRATFFLTGFQGLEGLHGWISIPFCFIYLTVILGNLTILHVICTDATLHGPMYYFLGMLAVTDLGLCLSTLPTVLGIFWFDTREIGIPACFTQLFFIHTLSSMESSVLLSMSIDRYVAVCNPLHDSTVLTPACIVKMGLSSVLRSALLILPLPFLLKRFQYCHSHVLAHAYCLHLEIMKLACSSIIVNHIYGLFVVACTVGVDSLLIFLSYALILRTVLSIASHQERLRALNTCVSHICAVLLFYIPMIGLSLVHRFGEHLPRVVHLFMSYVYLLVPPLMNPIIYSIKTKQIRQRIIKKFQFIKSLRCFWKD [OR51G1]
plasma membrane surface immunostaining intensity (GPCR class: A (Olfactory)): 116 ± 20

MTNQTQMMEFLLVRFTENWVLLRLHALLFSLIYLTAVLMNLVIILLMILDHRLHMAMYFFLRHLSFLDLCLISATVPKSILNSVASTDSISFLGCVLQLFLVVLLAGSEIGILTAMSYDRYAAICCPLHCEAVMSRGLCVQLMALSWLNRGALGLLYTAGTFSLNFYGSDELHQFFCDVPALLKLTCSKEHAIISVSVAIGVCYAFSCLVCIVVSYVYIFSAVLRISQRQRQSKAFSNCVPHLIVVTVFLVTGAVAYLKPGSDAPSILDLLVSVFYSVAPPTLNPVIYCLKNKDIKSALSKVLWNVRSSGVMKR [OR14K1]
plasma membrane surface immunostaining intensity (GPCR class: A (Olfactory)): 155 ± 35

MTNSSFFCPVYKDLEPFTYFFYLVFLVGIIGSCFATWAFIQKNTNHRCVSIYLINLLTADFLLTLALPVKIVVDLGVAPWKLKIFHCQVTACLIYINMYLSIIFLAFVSIDRCLQLTHSCKIYRIQEPGFAKMISTVVWLMVLLIMVPNMMIPIKDIKEKSNVGCMEFKKEFGRNWHLLTNFICVAIFLNFSAIILISNCLVIRQLYRNKDNENYPNVKKALINILLVTTGYIICFVPYHIVRIPYTLSQTEVITDCSTRISLFKAKEATLLLAVSNLCFDPILYYHLSKAFRSKVTETFASPKETKAQKEKLRCENNA [GPR171]
plasma membrane surface immunostaining intensity (GPCR class: A): 455 ± 49

MTPLCLNCSVLPGDLYPGGARNPMACNGSAARGHFDPEDLNLTDEALRLKYLGPQQTELFMPICATYLLIFVVGAVGNGLTCLVILRHKAMRTPTNYYLFSLAVSDLLVLLVGLPLELYEMWHNYPFLLGVGGCYFRTLLFEMVCLASVLNVTALSVERYVAVVHPLQARSMVTRAHVRRVLGAVWGLAMLCSLPNTSLHGIRQLHVPCRGPVPDSAVCMLVRPRALYNMVVQTTALLFFCLPMAIMSVLYLLIGLRLRRERLLLMQEAKGRGSAAARSRYTCRLQQHDRGRRQVTKMLFVLVVVFGICWAPFHADRVMWSVVSQWTDGLHLAFQHVHVISGIFFYLGSAANPVLYSLMSSRFRETFQEALCLGACCHRLRPRHSSHSLSRMTTGSTLCDVGSLGSWVHPLAGNDGPEAQQETDPS [NMUR1]
plasma membrane surface immunostaining intensity (GPCR class: A): 2770 ± 700
